# From article doi:10.1101/2025.08.18.670856
# B1: FetA-HIS (wild type, from the plasmid AHSG-bio-His) (natural protein)
# chain: APHGPGLIYRQPNCDDPETEEAALVAIDYINQNLPWGYKHTLNQIDEVKVWPQQPSGELFEIEIDTLETTCHVLDPTPVARCSVRQLKEHAVEGDCDFQLLKLDGKFSVVYAKCDSSPDSAEDVRKVCQDCPLLAPLNDTRVVHAAKAALAAFNAQNNGSNFQLEEISRAQLVPLPPSTYVEFTVSGTDCVAKEATEAAKCNLLAEKQYGFCKATLSEKLGGAEVAVTCMVFQTQPVSSQPQPEGANEAVPTPVVDPDAPPSPPLGAPGLPPAGSPPDSHVLLAAPPGHQLHRAHYDLRHTFMGVVSLGSPSGEVSHPRKTRTVVQPSVGAAAGPVVPPCPGRIRHFKV
# What was measured:
# [1] = molecular target: FetA-HIS (wild type, from the plasmid AHSG-bio-His) (human) (UniProt P02765); assay: SPR
# [2] = molecular target: HIF-1α wild type used in SPR: C-terminal domain (CTD) of hypoxia-stable HIF-1α (579-826 residues) (human) (UniProt Q16665); assay: SPR
Molecule,Kd [1] [µM],Kd [2] [µM]
HIF-1α 743D>L point mutant (from UniProt Q16665 1-826) (natural protein),0.09,
B1,,0.0234
